# Tests used:
# [1] = target: recombinant gB-CMV polyepitope protein (Human cytomegalovirus (AD169)); assay: direct ELISA; plate coated with concentrated recombinant protein diluted 1:102400; 2F12 at 1:8000; HRP anti-mouse Ig, TMB
# [2] = target: recombinant gB-CMV polyepitope protein (Human cytomegalovirus (AD169)); assay: direct ELISA; plate coated with concentrated recombinant protein diluted 1:25600; 2F12 at 1:8000; HRP anti-mouse Ig, TMB
# [3] = target: recombinant gB-CMV polyepitope protein (Human cytomegalovirus (AD169)); assay: direct ELISA; plate coated with concentrated recombinant protein diluted 1:50; 2F12 at 1:8000; HRP anti-mouse Ig, TMB
# [4] = target: recombinant gB-CMV polyepitope protein (Human cytomegalovirus (AD169)); assay: direct ELISA; plate coated with concentrated recombinant protein diluted 1:51200; 2F12 at 1:8000; HRP anti-mouse Ig, TMB
# [5] = target: recombinant gB-CMV polyepitope protein (Human cytomegalovirus (AD169)); assay: direct ELISA; plate coated with concentrated recombinant protein diluted 1:3200; 2F12 at 1:8000; HRP anti-mouse Ig, TMB
# [6] = target: recombinant gB-CMV polyepitope protein (Human cytomegalovirus (AD169)); assay: direct ELISA; plate coated with concentrated recombinant protein diluted 1:1600; 2F12 at 1:8000; HRP anti-mouse Ig, TMB
# [7] = target: recombinant gB-CMV polyepitope protein (Human cytomegalovirus (AD169)); assay: direct ELISA; plate coated with concentrated recombinant protein diluted 1:400; 2F12 at 1:8000; HRP anti-mouse Ig, TMB
# [8] = target: recombinant gB-CMV polyepitope protein (Human cytomegalovirus (AD169)); assay: direct ELISA; plate coated with concentrated recombinant protein diluted 1:12800; 2F12 at 1:8000; HRP anti-mouse Ig, TMB
# [9] = target: recombinant gB-CMV polyepitope protein (Human cytomegalovirus (AD169)); assay: direct ELISA; plate coated with concentrated recombinant protein diluted 1:100; 2F12 at 1:8000; HRP anti-mouse Ig, TMB
# [10] = target: recombinant gB-CMV polyepitope protein (Human cytomegalovirus (AD169)); assay: direct ELISA; plate coated with concentrated recombinant protein diluted 1:200; 2F12 at 1:8000; HRP anti-mouse Ig, TMB
# [11] = target: recombinant gB-CMV polyepitope protein (Human cytomegalovirus (AD169)); assay: direct ELISA; plate coated with concentrated recombinant protein diluted 1:6400; 2F12 at 1:8000; HRP anti-mouse Ig, TMB
# [12] = target: recombinant gB-CMV polyepitope protein (Human cytomegalovirus (AD169)); assay: direct ELISA; plate coated with concentrated recombinant protein diluted 1:800; 2F12 at 1:8000; HRP anti-mouse Ig, TMB
substance,measurement,setting,value
"anti-gB monoclonal antibody 2F12 (Abcam, UK)",OD,[1],0.144 OD
same,OD,[2],0.277 OD
same,OD,[3],0.69 OD
same,OD,[4],0.19 OD
same,OD,[5],0.4 OD
same,OD,[6],0.379 OD
same,OD,[7],0.59 OD
same,OD,[8],0.249 OD
same,OD,[9],0.548 OD
same,OD,[10],0.408 OD
same,OD,[11],0.317 OD
same,OD,[12],0.486 OD

# Source: patent US7976845
